Molecular target: T1, K458A (Homo sapiens, UniProt P78325)
T1 construct: expressed on HEK293 cells; also called human ADAM8 point mutant K458A
T1 sequence (ADAM8, looked up): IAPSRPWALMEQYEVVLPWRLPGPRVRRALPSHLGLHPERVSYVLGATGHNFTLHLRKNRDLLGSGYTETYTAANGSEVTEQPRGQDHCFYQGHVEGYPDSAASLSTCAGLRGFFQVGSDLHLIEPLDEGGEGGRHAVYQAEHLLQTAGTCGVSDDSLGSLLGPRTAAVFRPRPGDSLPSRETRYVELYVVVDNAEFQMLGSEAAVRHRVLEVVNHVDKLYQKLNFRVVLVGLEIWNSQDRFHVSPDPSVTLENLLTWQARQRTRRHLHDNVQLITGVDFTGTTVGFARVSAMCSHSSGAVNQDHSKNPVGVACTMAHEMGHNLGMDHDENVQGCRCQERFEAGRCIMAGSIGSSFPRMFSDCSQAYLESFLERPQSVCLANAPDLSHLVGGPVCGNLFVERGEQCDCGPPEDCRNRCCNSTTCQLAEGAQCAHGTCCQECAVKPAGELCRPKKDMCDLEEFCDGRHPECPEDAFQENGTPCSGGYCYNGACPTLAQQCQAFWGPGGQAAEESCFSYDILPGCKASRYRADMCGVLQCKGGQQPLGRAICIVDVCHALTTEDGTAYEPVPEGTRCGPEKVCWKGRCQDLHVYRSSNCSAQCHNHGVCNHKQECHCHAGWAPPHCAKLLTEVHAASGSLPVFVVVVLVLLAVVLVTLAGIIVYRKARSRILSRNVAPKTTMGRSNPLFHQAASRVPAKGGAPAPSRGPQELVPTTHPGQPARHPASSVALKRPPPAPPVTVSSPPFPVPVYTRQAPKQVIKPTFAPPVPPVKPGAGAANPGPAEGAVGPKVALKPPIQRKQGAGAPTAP
Experiment: high-throughput flow cytometry, HEK293 cells with mutant ADAM8, high stringency; range in parentheses; dotted box
Description: A variety of experimental parameters were optimized for high-throughput flow cytometry including blocking buffer, and primary and secondary antibody concentrations, to identify the optimal conditions for screening. Through these studies ADP2 and ADP13 were determined to be high affinity binding antibodies.
Thus, for these studies antigen-binding fragments (Fabs) of ADP2 and ADP13, which bind with lower affinity than the full antibody, were generated. In addition, higher binding stringency conditions were tested, such as increased pH, salinity, and temperature, and/or increased washing, to weaken binding sufficiently to allow identification of critical binding residues in flow cytometry. The final experimental flow cytometry conditions were: primary antibody incubation with ADP2 Fab (0.50 μg/ml), ADP13 Fab (5.00 μg/ml) and Control Ab (0.16 μg/ml) for 60 minutes in flow cytometry buffer containing 10% goat serum in PBS (Ca²⁺ and Mg²⁺ free). […] Samples were washed three times after primary antibody incubation and twice after secondary antibody incubation with PBS (Ca²⁺ and Mg′ free). Next, HEK293 cells expressing WT or mutated ADAM8 proteins or EV DNA were incubated with ADP2 or ADP13 Fabs or Control Ab at their optimal concentrations. Fab binding was detected using Alexa Fluor 488-conjugated secondary antibodies and mean cellular fluorescence determined using the Intellicyt iQue flow cytometry platform. […] This counter-screen strategy facilitates the exclusion of mutants that are locally misfolded or that have an expression defect. Binding of each test Fab to each mutant clone in the alanine scanning library was determined, in duplicate, by high-throughput flow cytometry.

B1: ADP2 Fab (Fab, V domains shown)
VH: EVKLVESGGGLVQPGGSLSLSCAASGFSFPDYYMSWVRQPPGKALEWLGFIRDSANGYTTEYIASVKGRFTFSRDNSQSILYLQMNALRAEDSATYYCARYSRYYGMDYWGQGTSVTVSS
VL: SIVMTQTPKILLVSAGDRVTITCKASQTVNYDVAWYQQKPGQSPKPVIYFASNRYTGVPDRFTGSGFGTDFTFTISTVQAEDLAVYFCQQDYSAPWTFGGGTKLEIK
  Binding Reactivity (% WT): 28 % WT

Reference: patent US20220227882A1 (TRUSTEES OF TUFTS COLLEGE, published 2022)
